Data reported in patent publication US7977317B2, “Compositions and methods for modulating blood-brain barrier transport” (Raptor Pharmaceutical Inc., priority 2001, dated 2011).

Experiments:
[1] = Brain uptake one hour after i.v. injection; format: in vivo; details: mice, one hour after i.v. injection of [125I]-protein (FIG. 11a)
Procedure: (§1) FIG. 11 examines the accumulation and transcytosis of p97. FIG. 11a, of [^125I]-p97, [^125I]-BSA and [^125I]-holo-transferrin one hour after i.v. injection. The radioactivity in brain was compared between the three compounds. (n=3); FIG. 11b, Accumulation of p97 and transferrin into the mouse brain parenchyma. In situ brain perfusion was performed with human [^125I]-p97 or [^125I]-holo-transferrin at a final concentration of 10 nM via a catheter inserted in the right common carotid artery. The volume of distribution (VD) of [^125I]-proteins were obtained in the whole brain homogenate (white bars), in brain capillaries (solid bars) and in brain parenchyma (hatched bars) after isolation of the right hemisphere and capillary depletion. Results were obtained for p97 (n=10) and for holo-transferrin (n=6); FIG. 11c, Transcytosis of p97 across BBCEC monolayers. Transcytosis experiments were performed 37° C. (open circles) and 4° C. (closed circles) with BBCEC monolayers. […] Apical-to-basal and basal-to-apical transport of [^125I]-p97 (25 nM) was measured for 2 hrs at 37° C. At the end of the experiment, [^125I]-p97 was assessed in the lower or upper chambers of each well by TCA precipitation (n=4).
(§2) A. Brain uptake and in situ brain perfusion. […] The serum and brain samples were collected and the levels of radioactivity were measured. […]

[2] = In situ brain perfusion with capillary depletion; format: in vivo; details: mice, 10 min perfusion
Procedure: as §1, §2

LRP/LRP1B = experiment: Ligand binding and cross-linking, LRP/LRP1B immunodetection in U-87 cells; set-up: species or system human; details: 4° C., cross-linked, non-reducing SDS-PAGE (FIG. 29)
Procedure: FIG. 29. […] U-87 cells were grown in monolayer in six-multiwell microplates at 37° C. under 5% CO2. The cell monolayer were incubated at 4° C. with p97 or RAP in Ringer/Hepes solution. After incubation, cell monolayer was washed 3 times with cold-Ringer/Hepes solution and proteins were cross-linked with 1 mM DSS. After, cells were lysed and equal quantities of protein (25 μg) were subjected to SDS-PAGE under non-reducing conditions and electroblotted onto PVDF membranes. […] (n=2).
Ligand-binding. Briefly, cells were incubated with [^125I]-p97 in Ringer/Hepes solution, in presence or in absence of 5 μM cold-P97 for 1 h at 4° C. After incubation, the cell monolayer was washed three times with cold Ringer/Hepes solution. After the ligand binding at 4° C., cell monolayer was washed three times with cold Ringer/Hepes solution and was incubated with DSS (Disuccinimidyl suberate) or Lomant's reagent DSP (Dithiobis(succinimidyl propionate)) from Pierce. After the cross-link, cells were lysed and proteins were separated by SDS-PAGE electrophoresis. Gels were fixed, dryed and exposed to Kodak films at −80° C. for about 3 weeks before developing. The cross-link was performed exactly as the manufacturer's protocol.

U-87 cells = experiment: Morphology of U-87 cells after p97 treatment; format: cell-based, human; details: FIG. 33

B1: p97: recombinant human melanotransferrin (p97), provided by Synapse Technologies (protein, UniProt P08582 20-709, looked up)
Melanotransferrin: GMEVRWCATSDPEQHKCGNMSEAFREAGIQPSLLCVRGTSADHCVQLIAAQEADAITLDGGAIYEAGKEHGLKPVVGEVYDQEVGTSYYAVAVVRRSSHVTIDTLKGVKSCHTGINRTVGWNVPVGYLVESGRLSVMGCDVLKAVSDYFGGSCVPGAGETSYSESLCRLCRGDSSGEGVCDKSPLERYYDYSGAFRCLAEGAGDVAFVKHSTVLENTDGKTLPSWGQALLSQDFELLCRDGSRADVTEWRQCHLARVPAHAVVVRADTDGGLIFRLLNEGQRLFSHEGSSFQMFSSEAYGQKDLLFKDSTSELVPIATQTYEAWLGHEYLHAMKGLLCDPNRLPPYLRWCVLSTPEIQKCGDMAVAFRRQRLKPEIQCVSAKSPQHCMERIQAEQVDAVTLSGEDIYTAGKTYGLVPAAGEHYAPEDSSNSYYVVAVVRRDSSHAFTLDELRGKRSCHAGFGSPAGWDVPVGALIQRGFIRPKDCDVLTAVSEFFNASCVPVNNPKNYPSSLCALCVGDEQGRNKCVGNSQERYYGYRGAFRCLVENAGDVAFVRHTTVFDNTNGHNSEPWAAELRSEDYELLCPNGARAEVSQFAACNLAQIPPHAVMVRPDTNIFTVYGLLDKAQDLFGDDHNKNGFKMFDSSNYHGQDLLFKDATVRAVPVGEKTTYRGWLGLDYVAALEGMSSQQC
Brain/serum ratio [1]: 0.025 | Apparent VD of p97 in brain parenchyma relative to transferrin [2]: 8.8 fold | Apparent VD in the brain parenchyma ([2]; 10 nM [125I]-protein (FIG. 11b)): 17.2 ml/100 g | Association with LRP/LRP1B (LRP/LRP1B): high molecular weight dissociable complex | Effect on the morphology of U-87 cells (U-87 cells): no discernable effect on the morphology
